# Laboratory results from patent US20170157251A1 (MacroGenics, published 2017).
# T1: human CD19 on cells (human, UniProt P15391 20-556)
# T1 sequence (looked up): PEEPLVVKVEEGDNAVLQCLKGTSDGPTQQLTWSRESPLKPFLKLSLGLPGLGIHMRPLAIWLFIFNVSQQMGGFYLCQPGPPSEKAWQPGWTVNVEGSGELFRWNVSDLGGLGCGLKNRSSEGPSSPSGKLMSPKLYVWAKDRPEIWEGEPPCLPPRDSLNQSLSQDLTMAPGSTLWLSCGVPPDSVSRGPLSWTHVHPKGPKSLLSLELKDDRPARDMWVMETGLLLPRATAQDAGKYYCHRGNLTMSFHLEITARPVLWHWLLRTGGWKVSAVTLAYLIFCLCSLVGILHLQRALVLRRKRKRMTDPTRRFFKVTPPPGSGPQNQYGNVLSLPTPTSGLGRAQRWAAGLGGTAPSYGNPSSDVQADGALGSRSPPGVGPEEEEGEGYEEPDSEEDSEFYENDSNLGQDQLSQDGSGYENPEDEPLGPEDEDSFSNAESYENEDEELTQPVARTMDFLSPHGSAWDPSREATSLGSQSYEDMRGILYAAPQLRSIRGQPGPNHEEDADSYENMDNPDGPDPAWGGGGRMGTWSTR
# Experiments:
# Experiment in all cases: cell-based or functional assay
# human CD19 on cells [1] = biological target: T1, human CD19 on cells
# human CD19 on cells [2] = biological target: T1, human CD19 on cells; remark: listed apart in the source
# human CD19 on cells [3] = biological target: T1, human CD19 on cells; remark: listed apart in the source
# human CD19 on cells [4] = biological target: T1, human CD19 on cells; remark: listed apart in the source
# human CD19 on cells [5] = biological target: T1, human CD19 on cells; remark: listed apart in the source
binder,measurement,setting,value
"DART-A (CD19×CD3 bi-specific monovalent Fc diabody) (bispecific antibody, Three covalently bonded chains; one CD19 site and one CD3 site; Fc with L234A/L235A, knob/hole, H435R on third chain; also called CD19×CD3 bi-specific molecule; CD19×CD3 bi-specific DART-A) chain 1: ENVLTQSPATLSVTPGEKATITCRASQSVSYMHWYQQKPGQAPRLLIYDASNRASGVPSRFSGSGSGTDHTLTISSLEAEDAATYYCFQGSVYPFTFGQGTKLEIKGGGSGGGGEVQLVESGGGLVQPGGSLRLSCAASGFTFSTYAMNWVRQAPGKGLEWVGRIRSKYNNYATYYADSVKGRFTISRDDSKNSLYLQMNSLKTEDTAVYYCVRHGNFGNSYVSWFAYWGQGTLVTVSSASTKGEVAACEKEVAALEKEVAALEKEVAALEKGGGDKTHTCPPCPAPEAAGGPSVFLFPPKPKDTLMISRTPEVTCVVVDVSHEDPEVKFNWYVDGVEVHNAKTKPREEQYNSTYRVVSVLTVLHQDWLNGKEYKCKVSNKALPAPIEKTISKAKGQPREPQVYTLPPSREEMTKNQVSLWCLVKGFYPSDIAVEWESNGQPENNYKTTPPVLDSDGSFFLYSKLTVDKSRWQQGNVFSCSVMHEALHNHYTQKSLSLSPGK chain 2: QAVVTQEPSLTVSPGGTVTLTCRSSTGAVTTSNYANWVQQKPGQAPRGLIGGTNKRAPWTPARFSGSLLGGKAALTITGAQAEDEADYYCALWYSNLWVFGGGTKLTVLGGGGSGGGGQVTLRESGPALVKPTQTLTLTCTFSGFSLSTSGMGVGWIRQPPGKALEWLAHIWWDDDKRYNPALKSRLTISKDTSKNQVFLTMTNMDPVDTATYYCARMELWSYYFDYWGQGTTVTVSSASTKGKVAACKEKVAALKEKVAALKEKVAALKE chain 3: not shown","EC50 of autologous B cell depletion, human PBMCs, 0 nM ibrutinib, 48 hours",human CD19 on cells [1],0.79 ng/mL
same,"EC50 of redirected killing of Raji/GF cells, T cells cultured 24 hours with 0 nM ibrutinib, E:T 10:1, 24 hours",human CD19 on cells [2],0.042 ng/mL
same,"EC50 of redirected killing of Raji/GF cells, T cells cultured 48 hours with 0 nM ibrutinib, E:T 10:1, 24 hours",human CD19 on cells [2],0.0016 ng/mL
same,"EC50 of redirected killing of Raji/GF cells, T cells cultured 72 hours with 0 nM ibrutinib, E:T 10:1, 24 hours",human CD19 on cells [2],0.0031 ng/mL
same,"EC50 of redirected killing of Raji/GF cells, T cells pretreated 24 hours with 25 nM ibrutinib",human CD19 on cells [2],0.028 ng/mL
same,"EC50 of redirected killing of Raji/GF cells, T cells pretreated 24 hours with 250 nM ibrutinib",human CD19 on cells [2],0.033 ng/mL
same,"EC50 of redirected killing of Raji/GF cells, T cells pretreated 24 hours with 750 nM ibrutinib",human CD19 on cells [2],0.037 ng/mL
same,"EC50 of redirected killing of Raji/GF cells, T cells pretreated 24 hours with 2500 nM ibrutinib",human CD19 on cells [2],0.104 ng/mL
same,"EC50 of redirected killing of Raji/GF cells, T cells pretreated 48 hours with 25 nM ibrutinib",human CD19 on cells [2],0.0015 ng/mL
same,"EC50 of redirected killing of Raji/GF cells, T cells pretreated 48 hours with 250 nM ibrutinib",human CD19 on cells [2],0.0011 ng/mL
same,"EC50 of redirected killing of Raji/GF cells, T cells pretreated 48 hours with 750 nM ibrutinib",human CD19 on cells [2],0.0012 ng/mL
same,"EC50 of redirected killing of Raji/GF cells, T cells pretreated 48 hours with 2500 nM ibrutinib",human CD19 on cells [2],0.0044 ng/mL
same,"EC50 of redirected killing of Raji/GF cells, T cells pretreated 72 hours with 25 nM ibrutinib",human CD19 on cells [2],0.0021 ng/mL
same,"EC50 of redirected killing of Raji/GF cells, T cells pretreated 72 hours with 250 nM ibrutinib",human CD19 on cells [2],0.002 ng/mL
same,"EC50 of redirected killing of Raji/GF cells, T cells pretreated 72 hours with 750 nM ibrutinib",human CD19 on cells [2],0.0018 ng/mL
same,"EC50 of redirected killing of Raji/GF cells, T cells pretreated 72 hours with 2500 nM ibrutinib",human CD19 on cells [2],0.0085 ng/mL
same,"EC50 of redirected killing of Raji/GF cells, E:T = 1:1, 72 hours",human CD19 on cells [3],2.79 pM
same,"EC50 of redirected killing of Raji/GF cells, E:T = 1:1, 96 hours",human CD19 on cells [3],0.44 pM
same,"EC50 of redirected killing of Raji/GF cells, E:T = 2.5:1, 72 hours",human CD19 on cells [3],1.54 pM
same,"EC50 of redirected killing of Raji/GF cells, E:T = 2.5:1, 96 hours",human CD19 on cells [3],0.422 pM
same,"mean EC50 of IFN-γ release, CTL assay, purified human T cells with Raji/GF tumor cells (E:T = 10:1), n = 2",human CD19 on cells [4],5.51 pM
same,"mean EC50 of IL-2 release, CTL assay, purified human T cells with Raji/GF tumor cells (E:T = 10:1), n = 2",human CD19 on cells [4],6.32 pM
same,"mean EC50 of TNF-α release, CTL assay, purified human T cells with Raji/GF tumor cells (E:T = 10:1), n = 2",human CD19 on cells [4],3.71 pM
same,"mean EC50 of cytotoxicity, CTL assay, HBL-2 (n = 5), human T cells E:T = 10:1",human CD19 on cells [4],0.11 pM
same,"mean EC50 of cytotoxicity, CTL assay, Jeko-1 (n = 3), human T cells E:T = 10:1",human CD19 on cells [4],0.15 pM
same,"mean EC50 of cytotoxicity, CTL assay, Raji/GF (n = 5), human T cells E:T = 10:1",human CD19 on cells [4],0.31 pM
same,"EC50 of redirected killing of Raji/GF cells, 0 nM ibrutinib, CTL assay 24 hours, E:T 10:1",human CD19 on cells [5],0.014 ng/mL
same,"EC50 of redirected killing of Raji/GF cells, 0 nM ibrutinib, CTL assay 48 hours, E:T 10:1",human CD19 on cells [5],0.0022 ng/mL
